Experimental data: the supplement of paper PMC9233669
This sample holds only a part of the variants without activity.

Legend:
[1] = test system: biotinyl-Trp-oxazolone; experiment: self-aminoacylation, catalytic enhancement (BWO) (fold over background); higher = more active; k-Seq, kA / k0A0; sequences stand for … in GGGAAUGGAUCCACAUCUACGAAUUC…UUCACUGCAGACUUGACGAAGCUG
Summary of the method: (§1)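 The uncatalyzed rate is the low-activity peak of a bimodal Gaussian fit, and catalytic enhancement is median kA divided by it. The kA values came from pseudo-first-order fits, with 1000 bootstraps, of per-sequence fraction reacted measured by streptavidin capture, triplicate qPCR and Illumina sequencing. Mutagenized RNA pools with a 21-nt variable region (0.43 μM) were reacted with each biotinyl-aminoacyl-oxazolone at 2–1250 μM in 50 μL HEPES/NaCl/KCl/MgCl2/CaCl2 buffer with 5% acetonitrile, pH 6.9–7.0, for 90 minutes at room temperature.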

[2] = test system: biotinyl-Leu-oxazolone; experiment: self-aminoacylation, catalytic enhancement (BLO) (fold over background); higher = more active; k-Seq, kA / k0A0; sequences stand for … in GGGAAUGGAUCCACAUCUACGAAUUC…UUCACUGCAGACUUGACGAAGCUG
Summary of the method: as §1

[3] = test system: biotinyl-Ile-oxazolone; experiment: self-aminoacylation, catalytic enhancement (BIO) (fold over background); higher = more active; k-Seq, kA / k0A0; sequences stand for … in GGGAAUGGAUCCACAUCUACGAAUUC…UUCACUGCAGACUUGACGAAGCUG
Summary of the method: as §1

[4] = test system: biotinyl-Met-oxazolone; experiment: self-aminoacylation, catalytic enhancement (BMO) (fold over background); higher = more active; k-Seq, kA / k0A0; sequences stand for … in GGGAAUGGAUCCACAUCUACGAAUUC…UUCACUGCAGACUUGACGAAGCUG
Summary of the method: as §1

[5] = test system: biotinyl-Phe-oxazolone; experiment: self-aminoacylation, catalytic enhancement (BFO) (fold over background); higher = more active; k-Seq, kA / k0A0; sequences stand for … in GGGAAUGGAUCCACAUCUACGAAUUC…UUCACUGCAGACUUGACGAAGCUG
Summary of the method: as §1

[6] = test system: biotinyl-Val-oxazolone; experiment: self-aminoacylation, catalytic enhancement (BVO) (fold over background); higher = more active; k-Seq, kA / k0A0; sequences stand for … in GGGAAUGGAUCCACAUCUACGAAUUC…UUCACUGCAGACUUGACGAAGCUG
Summary of the method: as §1

Sequence | self-aminoacylation [1] | self-aminoacylation [2] | self-aminoacylation [3] | self-aminoacylation [4] | self-aminoacylation [5] | self-aminoacylation [6]
AUUCACCUGGGUCAUUGGGUG [Fam2.2 aminoacylation ribozyme variant] | 4.15 | 6.07 | 3.51 | 4.52 | 31.1 | 4.03
AUUCACCUGGGUCUUCGGGUG [Fam2.2 aminoacylation ribozyme variant] | 5.25 | 7.31 | 4.14 | 5.53 | 38.6 | 5.01
AUUCACCUGGUCAUCGAGUGA [Fam2.1 aminoacylation ribozyme variant] | 8.2 | 5.93 | 3.55 | 5.88 | 9.12 | 3.58
AUUCACCUUAGUCAUCGGGUG [Fam2.2 aminoacylation ribozyme variant] | 5.66 | 7.94 | 3.73 | 6.02 | 38.8 | 3.83
AUUCACCUUGGGCAUCGGGUG [Fam2.2 aminoacylation ribozyme variant] | 5.41 | 4.33 | 3.58 | 3.99 | 22.9 | 3.69
AUUCACCUUGGUAAUCGGGUG [Fam2.2 aminoacylation ribozyme variant] | 3.98 | 5.19 | 2.23 | 3.95 | 24.4 | 2.35
AUUCACCUUGGUCACCGGGUG [Fam2.2 aminoacylation ribozyme variant] | 5.4 | 6.72 | 4.82 | 5.58 | 27.5 | 4.2
AUUCACCUUGGUCAUCCGGUG [Fam2.2 aminoacylation ribozyme variant] | 7.75 | 11.5 | 6.27 | 8.93 | 60.2 | 6.17
AUUCACCUUGGUCAUCGCGUG [Fam2.2 aminoacylation ribozyme variant] | 14.1 | 18.2 | 8.37 | 15.3 | 117 | 8.42
AUUCACCUUGGUCAUCGGCUG [Fam2.2 aminoacylation ribozyme variant] | 1.66 | 1.7 | 1.64 | 1.52 | 7.58 | 2.19
AUUCACCUUGGUCAUCGGGCG [Fam2.2 aminoacylation ribozyme variant] | 2.93 | 3.24 | 2.74 | 2.81 | 3.77 | 2.77
AUUCACCUUGGUCAUCGGGUG [Fam2.2 aminoacylation ribozyme variant] | 7.43 | 9.96 | 4.71 | 7.9 | 55.7 | 4.97
AUUCACCUUGGUCAUCGGGUU [Fam2.2 aminoacylation ribozyme variant] | 2.14 | 2.38 | 1.67 | 1.84 | 8.05 | 2.08
AUUCACCUUGGUCAUGGGGUG [Fam2.2 aminoacylation ribozyme variant] | 4.27 | 6.08 | 2.91 | 4.32 | 26.8 | 3.36
AUUCACCUUGGUCAUUGGGUG [Fam2.2 aminoacylation ribozyme variant] | 3.18 | 3.56 | 2.11 | 2.9 | 21.4 | 2.17
AUUCACCUUGGUCUUCGGGUG [Fam2.2 aminoacylation ribozyme variant] | 5.01 | 6.07 | 3.75 | 4.81 | 37.3 | 4.25
AUUCACGCAGGUCAUCGGGUG [Fam2.2 aminoacylation ribozyme variant] | 5.58 | 4.77 | 3.54 | 4.55 | 41.6 | 4.58
AUUCACGUAGAUCAUCGGGUG [Fam2.2 aminoacylation ribozyme variant] | 4.96 | 5.42 | 4.08 | 5.1 | 29.6 | 3.9
AUUCACGUAGGUCAUCGGUUG [Fam2.2 aminoacylation ribozyme variant] | 0.72 | 1.35 | 1.2 | 1.23 | 4.98 | 1.24
AUUCACGUAGGUCAUCGUGUG [Fam2.2 aminoacylation ribozyme variant] | 1.79 | 1.82 | 1.15 | 1.57 | 7.45 | 1.28
AUUCACGUAGGUCGUCGGGUG [Fam2.2 aminoacylation ribozyme variant] | 2.44 | 2.35 | 2.61 | 2.48 | 9.34 | 3.81
AUUCACGUAGUUCAUCGGGUG [Fam2.2 aminoacylation ribozyme variant] | 4.72 | 3.88 | 3.07 | 3.49 | 21.9 | 3.45
AUUCACGUAUGUCAUCGGGUG [Fam2.2 aminoacylation ribozyme variant] | 7.42 | 9.38 | 5.2 | 8.47 | 73.5 | 5.58
AUUCACGUCGGUCAUCGGGUG [Fam2.2 aminoacylation ribozyme variant] | 6.46 | 5.21 | 3.75 | 5.7 | 54.3 | 5.95
AUUCACGUGGGUCAUCGGGUG [Fam2.2 aminoacylation ribozyme variant] | 9.93 | 7.84 | 5.57 | 9.61 | 94 | 8.26
